Literature values as cited in article PMC4245983 (Biochemistry, 2014).
Positions count from the first letter of the chain named. Names may count otherwise. “Also recorded” adds a separate entry of the source. One block for each molecule: values may come before it.

What was measured:
[1] = system: HscA; conditions: read-out: Km of WT HscA (ATP)
[2] = system: HscA; conditions: compared to DnaK
[3] = system: HscA; conditions: 25 °C; background statement, no reference given
[4] = system: IscU
[5] = biological target: WT HscA; conditions: read-out: Kd^ATP of WT HscA
[6] = system: [2Fe-2S] cluster transfer
[7] = system: Hsc70 NBD; conditions: NBD with interdomain linker; ref 32 (b59 prints ref 23)

binding affinity for ATP, fold weaker than DnaK [2]: 10^3 fold | preferential binding to conformational state of IscU [4]: binds preferentially to the D-state | Kd [5]: 26 ± 7 µM
B1: WT HscA: specialized Hsp70-type chaperone (66 kDa) of E. coli (protein, UniProt P0A6Z1 1-616, looked up)
chain: MALLQISEPGLSAAPHQRRLAAGIDLGTTNSLVATVRSGQAETLADHEGRHLLPSVVHYQQQGHSVGYDARTNAALDTANTISSVKRLMGRSLADIQQRYPHLPYQFQASENGLPMIETAAGLLNPVRVSADILKALAARATEALAGELDGVVITVPAYFDDAQRQGTKDAARLAGLHVLRLLNEPTAAAIAYGLDSGQEGVIAVYDLGGGTFDISILRLSRGVFEVLATGGDSALGGDDFDHLLADYIREQAGIPDRSDNRVQRELLDAAIAAKIALSDADSVTVNVAGWQGEISREQFNELIAPLVKRTLLACRRALKDAGVEADEVLEVVMVGGSTRVPLVRERVGEFFGRPPLTSIDPDKVVAIGAAIQADILVGNKPDSEMLLLDVIPLSLGLETMGGLVEKVIPRNTTIPVARAQDFTTFKDGQTAMSIHVMQGERELVQDCRSLARFALRGIPALPAGGAHIRVTFQVDADGLLSVTAMEKSTGVEASIQVKPSYGLTDSEIASMIKDSMSYAEQDVKARMLAEQKVEAARVLESLHGALAADAALLSAAERQVIDDAAAHLSEVAQGDDVDAIEQAIKNVDKQTQDFAARRMDQSVRRALKGHSVDEV
modifications: full-length
Km [1]: 12.6 µM | rate of ADP dissociation, fold higher than DnaK [2]: > 10^3 fold | intrinsic ATPase activity [3]: 0.02 min^–1

effect of ATPase deficient mutant on [2Fe-2S] cluster transfer [6]: abolishes [2Fe-2S] cluster transfer
B2: HscA T212V (protein, UniProt P0A6Z1 1-616, looked up, variant T212V)
Chaperone protein HscA: B1 chain with T212V

B3: auxilin: J-protein of Hsc70 (protein, UniProt Q27974 1-910, looked up)
Auxilin: MDSSGASSPDMEPSYGGGLFDMVKGGAGRLFSNLKDNLKDTLKDTSSRVIQSVTSYTKGDLDFTYVTSRIIVMSFPLDSVDIGFRNQVDDIRSFLDSRHLDHYTVYNLSPKSYRTAKFHSRVSECSWPIRQAPSLHNLFAVCRNMYNWLLQNPKNVCVVHCLDGRAASSILVGAMFIFCNLYSTPGPAVRLLYAKRPGIGLSPSHRRYLGYMCDLLADKPYRPHFKPLTIKSITVSPVPFFNKQRNGCRPYCDVLIGETKIYTTCADFERMKEYRVQDGKIFIPLSITVQGDVVVSMYHLRSTIGSRLQAKVTNTQIFQLQFHTGFIPLDTTVLKFTKPELDACDVPEKYPQLFQVTLDVELQPHDKVMELTPPWEHYCTKDVNPSILFSSHQEHQDTLVLGGQAPIDIPPDNPRHFGQGGFFSTLCWQDQKSEKSFCEEDHAALVNQESEQSDDELLTLSSPHGNANGDKPHAARKPSKKQQEPAAPAPPEDVDLLGLEGSAVSKNFSSPAAPPSNSELLSDLFGGGGAAGPVQSGQSGVDDVFHPSGPTSTQSTPRRSATSTSASPTLRVGEGATFDPFGAPSKPSGQDLLGSFLNTASASSDPFLQPTRSPSPTVHASSTPAVNIQPDVSGAWDWHTKPGGFGMGSKSAATSPTGSSHGTPTHQNKPQTLDPFADLGTLGGSSFASKPSTPTGLGGGFPPLSSPQKASPQPMGGGWQQGGGYNWQQTQSKPQSSMPHSSPQNRPNYNVSFSSMPGGQNERGKAAANLEGKQKAADFEDLLSGQGFNAHKDKKGPRTIAEMRKEEMAKEMDPEKLKILEWIEGKERNIRALLSTMHTVLWAGETKWKPVGMADLVTPEQVKKVYRKAVLVVHPDKATGQPYEQYAKMIFMELNDAWSEFENQGQKPLY
effect on ATPase activity of Hsc70 NBD variants [7]: stimulated by its J-protein (auxilin) if and only if the interdomain linker was present; also recorded: could be stimulated by its J-protein, auxilin
